Data set [1] concerns DH10B E. coli cells. The data set can be described thus: Toxicity of NH2Y: growth in liquid GMML medium and on agar plates. The data set is classed as cell-based. The text has this: Toxicity and uptake of NH2Y. Evolution of an NH2Y-specific aminoacyl-tRNA synthetase (RS) requires that NH2Y is taken up by E. coli, that it is not toxic, and that it is not incorporated into proteins by any endogenous RSs. All three requirements were met by NH2Y. […] The presence of DTT however, caused cells to grow at a rate 25-35% more slowly than those in the presence of only NH2Y or absence of NH2Y/DTT.

Data set [2] deals with T1, E. coli ribonucleotide reductase (α2β2 complex) (Escherichia coli, UniProt P00452).
T1 construct: made in house; host or cells: E. coli DH10B for the NH2Y-α2s
As to conditions: previous studies; inactivation of wt α2β2 by N3ADP/dGTP; 20 s time scale; cited from earlier work.

For data set [3] the following is noted: pH 7; cited from earlier work.
Data set [4] deals with T2, wt β2, P69924.
T2 chain: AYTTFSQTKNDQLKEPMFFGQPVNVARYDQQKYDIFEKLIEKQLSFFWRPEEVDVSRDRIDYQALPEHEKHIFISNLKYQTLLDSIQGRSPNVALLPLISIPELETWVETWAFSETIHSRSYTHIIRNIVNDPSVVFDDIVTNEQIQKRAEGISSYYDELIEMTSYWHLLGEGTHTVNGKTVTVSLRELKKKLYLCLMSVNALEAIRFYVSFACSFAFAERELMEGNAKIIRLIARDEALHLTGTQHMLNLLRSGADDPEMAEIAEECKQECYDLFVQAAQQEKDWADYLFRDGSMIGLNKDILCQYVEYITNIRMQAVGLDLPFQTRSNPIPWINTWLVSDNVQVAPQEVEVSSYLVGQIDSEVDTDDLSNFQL

The target of data set [5] is wt β2 (E. coli) (UniProt P69924). The data set can be described thus: cell-based or functional assay.

We go through 7 molecules from patent US20090208994A1, “GENETIC INCORPORATION OF 3-AMINOTYROSINE INTO REDUCTASES” (THE SCRIPPS RESEARCH INSTITUTE, priority 2007, published 2009).

Take `O[C@H](CS)[C@H](O)CS` (racemic) [DTT, DL-dithiothreitol]: in data set [1] (presence of DTT (0.1 mM) vs. only NH2Y or absence of NH2Y/DTT), the “cells grow more slowly (rate)” value is recorded as 25-35%.
Consider `Nc1cc(C[C@H](N)C(=O)O)ccc1O` [NH2Y, 3-aminotyrosine], for which the “effect on growth rates” value in data set [1] (NH2Y (1 mM) or NH2Y/DTT in GMML medium and agar plates) was “not significantly affected”.
In the case of `[N-]=[N+]=N[C@@H]1[C@H](O)[C@@H](COP(=O)(O)OP(=O)(O)O)O[C@H]1n1cnc2c(N)ncnc21` [N3ADP, 2′-Azido-2′-deoxyadenosine-5′-diphosphate], the “initial Y122• lost (forming an equivalent amount of N•)” value in data set [2] is recorded as 50-60%.
On to `N[C@@H](Cc1ccc(O)c(O)c1)C(=O)O` [DOPA, 3,4-dihydroxyphenylalanine], for which, in data set [3], the “reduction potential lower than that of Y” value is on record as 260 mV.

B1: Y730NH2Y-α2 (protein)
chain: MNQNLLVTKRDGSTERINLDKIHRVLDWAAEGLHNVSISQVELRSHIQFYDGIKTSDIHETIIKAAADLISRDAPDYQYLAARLAIFHLRKKAYGQFEPPALYDHVVKMVEMGKYDNHLLEDYTEEEFKQMDTFIDHDRDMTFSYAAVKQLEGKYLVQNRVTGEIYESAQFLYILVAACLFSNYPRETRLQYVKRFYDAVSTFKISLPTPIMSGVRTPTRQFSSCVLIECGDSLDSINATSSAIVKYVSQRAGIGINAGRIRALGSPIRGGEAFHTGCIPFYKHFQTAVKSCSQGGVRGGAATLFYPMWHLEVESLLVLKNNRGVEGNRVRHMDYGVQINKLMYTRLLKGEDITLFSPSDVPGLYDAFFADQEEFERLYTKYEKDDSIRKQRVKAVELFSLMMQERASTGRIYIQNVDHCNTHSPFDPAIAPVRQSNLCLEIALPTKPLNDVNDENGEIALCTLSAFNLGAINNLDELEELAILAVRALDALLDYQDYPIPAAKRGAMGRRTLGIGVINFAYYLAKHGKRYSDGSANNLTHKTFEAIQYYLLKASNELAKEQGACPWFNETTYAKGILPIDTYKKDLDTIANEPLHYDWEALRESIKTHGLRNSTLSALMPSETSSQISNATNGIEPPRGYVSIKASKDGILRQVVPDYEHLHDAYELLWEMPGNDGYLQLVGIMQKFIDQSISANTNYDPSRFPSGKVPMQQLLKDLLTAYKFGVKTLYYQNTRDGAEDAQDDLVPSIQDDGCESGACKI
On to B1, for which, in data set [4], the “kobs / Ampl, 1st phase, without CDP/ATP” value is given as “No changes observed”; the “kobs / Ampl, 2nd phase, without CDP/ATP” value is reported as “No changes observed”; the “rate constant of formation of NH2Y• at 325 nm (fast phase)” value amounted to 13.6 ± 0.1 s⁻¹; the “rate constant of formation of NH2Y• at 325 nm (slow phase)” value turned out to be 2.5 ± 0.1 s⁻¹. For the same molecule, in data set [4], the “rate constant of loss of Y122• at 410 nm (fast phase)” value was found to be 12.0 ± 0.1 s⁻¹ and the “rate constant of loss of Y122• at 410 nm (slow phase)” value was found to be 2.4 ± 0.1 s⁻¹. In addition, in data set [4] (in 1/s), the “kobs, 1st phase (stopped-flow UV-vis, Y122• loss / NH2Y730• formation, with CDP/ATP)” value was 12.8 ± 0.8, 20 ± 1 and the “kobs, 2nd phase (stopped-flow UV-vis, Y122• loss / NH2Y730• formation, with CDP/ATP)” value was 2.5 ± 0.1, 19 ± 1.

B2: Y731NH2Y-α2 (enzyme, E. coli, UniProt P00452 1-761, looked up)
chain: B1 chain
modifications: 3-aminotyrosine (NH2Y) in place of Tyr at 731 (E. coli RNR numbering)
As to B2, in data set [5], the Ampl, 1st phase (% of total initial Y122• trapped, with CDP/ATP) came to 24%; the Ampl, 2nd phase (% of total initial Y122• trapped, with CDP/ATP) is 11%; the EPR spin quantitation at 10 s: share of remaining spin associated with NH2Y731•, with CDP/ATP amounted to 45%; the total initial Y122• consumed at 2 s is 35%.

B3: Y730NH2Y-α2 (enzyme, E. coli, UniProt P00452 1-761, looked up)
chain: B1 chain
modifications: 3-aminotyrosine (NH2Y) in place of Tyr at 730 (E. coli RNR numbering)
B3: in data set [5], the Ampl, 1st phase (% of total initial Y122• trapped, with CDP/ATP) was determined as 20%; the Ampl, 2nd phase (% of total initial Y122• trapped, with CDP/ATP) came out at 19%; the EPR spin quantitation at 10 s: share of remaining spin in the new signal (NH2Y730•), with CDP/ATP worked out at 53%; the total initial Y122• consumed at 2 s came out at 39%.
